B1: Thermotoga maritima encapsulin (T1 encapsulin shell) (natural protein, T. maritima)
chain: MEFLKRSFAPLTEKQWQEIDNRAREIFKTQLYGRKFVDVEGPYGWEYAAHPLGEVEVLSDENEVVKWGLRKSLPLIELRATFTLDLWELDNLERGKPNVDLSSLEETVRKVAEFEDEVIFRGCEKSGVKGLLSFEERKIECGSTPKDLLEAIVRALSIFSKDGIEGPYTLVINTDRWINFLKEEAGHYPLEKRVEECLRGGKIITTPRIEDALVVSERGGDFKLILGQDLSIGYEDREKDAVRLFITETFTFQVVNPEALILLKF
notes: encapsulin shell protein of Thermotoga maritima, T1 icosahedral shell, 24 nm, 60 subunits; Cloned into pBAD/HisA cut with NcoI and XhoI; also called T. maritima encapsulin protein; source: E. coli One shot BL21 (DE3) Star, pBAD/HisA, L-arabinose induced; purified as assembled particles (PEG-8000 precipitation, SEC, anion exchange); copies: 60

Legend:
[1] = biological target: the molecule itself; experiment: negative stain transmission electron microscopy; purified particles, 1 mg/mL in low salt buffer, uranyl formate stain, 80 keV
[2] = biological target: B1; experiment: bulk fluorescence of purified encapsulin particles (loading percentage); particles loaded in E. coli and purified; 15 ug/mL in 20 mM Tris, 100 mM NaCl, pH 8 with 1 mg/mL BSA; plate reader Ex 500 nm, Em 530 nm, 20 C; loading = percentage of occupied TP binding sites (T1: 60, T3: 180), mNeonGreen standard curve; triplicates; settings: partners not purified
[3] = biological target: T1, Myxococcus xanthus encapsulin (T3 encapsulin shell) (M. xanthus, UniProt Q1D6H4 1-287); experiment: as above; settings: partners not purified
T1 construct: encapsulin shell protein of Myxococcus xanthus, T3 icosahedral shell, 32 nm, 180 subunits; Cloned into pBAD/HisA cut with NcoI and XhoI; also called M. xanthus encapsulin protein; source: E. coli One shot BL21 (DE3) Star, pBAD/HisA, L-arabinose induced; purified as assembled particles (PEG-8000 precipitation, SEC, anion exchange); copies: 180
T1 sequence (Q1D6H4 whole entry): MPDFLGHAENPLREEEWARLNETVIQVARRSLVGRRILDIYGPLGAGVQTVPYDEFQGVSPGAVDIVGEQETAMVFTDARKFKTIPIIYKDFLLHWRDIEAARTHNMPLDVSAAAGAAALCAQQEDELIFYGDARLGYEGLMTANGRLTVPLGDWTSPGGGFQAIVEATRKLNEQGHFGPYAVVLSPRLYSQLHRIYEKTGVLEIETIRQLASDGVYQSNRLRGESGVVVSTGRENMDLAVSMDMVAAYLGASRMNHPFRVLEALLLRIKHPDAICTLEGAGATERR

## B1
[1]
  binding result: binds

B2: mNeonGreen C-terminally fused to the T1 consensus targeting peptide (peptide)
chain: DGSLGIGSLKG
notes: consensus targeting peptide found in T1 encapsulin systems; The targeting peptide is at the C-terminus of mNeonGreen; also called mNeonGreenTP (T1 consensus TP); T1 consensus TP; source: E. coli One shot BL21 (DE3) Star, pCDF-Duet1, IPTG induced before encapsulin; co-purified with encapsulin particles; not shown: mNeonGreen, N-terminal, kept
[2]
  cargo proteins per shell: ~2 cargo proteins per shell

B3: mNeonGreen C-terminally fused to the native T3 targeting peptide (peptide)
chain: PLTVGSLRRGG
notes: native 11-residue targeting peptide of the M. xanthus (T3) encapsulin system; The targeting peptide is at the C-terminus of mNeonGreen; also called mNeonGreenTP (native T3 TP); native T3 TP; source: E. coli One shot BL21 (DE3) Star, pCDF-Duet1, IPTG induced before encapsulin; co-purified with encapsulin particles; not shown: mNeonGreen, N-terminal, kept
[3]
  cargo proteins per shell: ~45 cargo proteins per shell

B4: mNeonGreen C-terminally fused to the native T1 targeting peptide (peptide)
chain: NTGGDLGIRK
notes: native targeting peptide of the T. maritima (T1) encapsulin system, from the C-terminus of the native cargo protein; The targeting peptide is at the C-terminus of mNeonGreen; also called mNeonGreenTP (native T1 TP); native T1 TP; source: E. coli One shot BL21 (DE3) Star, pCDF-Duet1, IPTG induced before encapsulin; co-purified with encapsulin particles; not shown: mNeonGreen, N-terminal, kept
[2]
  cargo proteins per shell: ~2 cargo proteins per shell

Source: article PMC7925596, “Exploring targeting peptide-shell interactions in encapsulin nanocompartments” (Scientific Reports, 2021)
